# Experimental data reported in PMC8443706, “Functionally diverse heteromeric traps for ligands of the transforming growth factor-β superfamily” (Scientific Reports, 2021).
# T1: growth differentiation factor 8 (GDF8, or myostatin) (human, UniProt O14793 267-375)
# T1 sequence (looked up): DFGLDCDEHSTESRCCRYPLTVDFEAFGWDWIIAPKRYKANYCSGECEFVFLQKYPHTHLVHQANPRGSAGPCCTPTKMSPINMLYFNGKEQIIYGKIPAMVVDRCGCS
# T2: GDF11 (human, UniProt O95390 299-407)
# T2 sequence (looked up): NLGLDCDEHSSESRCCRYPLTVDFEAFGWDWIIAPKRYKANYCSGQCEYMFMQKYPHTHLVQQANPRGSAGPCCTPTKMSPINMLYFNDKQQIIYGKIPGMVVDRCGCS
# T3: BMP9 (human, UniProt Q9UK05 320-429)
# T3 sequence (looked up): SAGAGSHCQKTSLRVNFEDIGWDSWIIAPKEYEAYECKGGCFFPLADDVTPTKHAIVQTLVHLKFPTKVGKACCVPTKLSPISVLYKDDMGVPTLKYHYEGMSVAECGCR
# T4: BMP10 (human, UniProt O95393 317-424)
# T4 sequence (looked up): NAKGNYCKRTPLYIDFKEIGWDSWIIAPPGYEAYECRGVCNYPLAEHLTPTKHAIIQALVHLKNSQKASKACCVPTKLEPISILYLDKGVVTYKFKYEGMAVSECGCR
# T5: activin A (human, UniProt P08476 311-426)
# T5 sequence (looked up): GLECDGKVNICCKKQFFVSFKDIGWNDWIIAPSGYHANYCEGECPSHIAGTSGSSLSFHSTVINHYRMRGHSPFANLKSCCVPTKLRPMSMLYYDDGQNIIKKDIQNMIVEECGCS
# T6: activin B (human, UniProt P09529 293-407)
# T6 sequence (looked up): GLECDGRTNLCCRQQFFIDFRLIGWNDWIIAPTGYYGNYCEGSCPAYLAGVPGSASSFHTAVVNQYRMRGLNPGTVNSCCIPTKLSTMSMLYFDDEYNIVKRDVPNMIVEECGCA
# B1: IIB-Fc:ALK7-Fc heterodimer (human ActRIIB ECD-Fc paired with human ALK7 ECD-Fc) (Fc fusion)
# chain 1: SGRGEAETRECIYYNANWELERTNQSGLERCEGEQDKRLHCYASWRNSSGTIELVKKGCWLDDFNCYDRQECVATEENPQVYFCCCEGNFCNERFTHLPEAGGPEVTYEPPPTAPT
# chain 2: GLKCVCLLCDSSNFTCQTEGACWASVMLTNGKEQVIKSCVSLPELNAQVFCHSSNNVTKTECCFTDFCNNITLHLPTASPNAPKLGPME
# B2: IIB-Fc:ALK3-Fc heterodimer (human ActRIIB ECD-Fc paired with human ALK3 ECD-Fc) (Fc fusion)
# chain 1: B1 chain 1
# chain 2: QNLDSMLHGTGMKSDSDQKKSENGVTLAPEDTLPFLKCYCSGHCPDDAINNTCITNGHCFAIIEEDDQGETTLASGCMKYEGSDFQCKDSPKAQLRRTIECCRTNLCNQYLQPTLPPVVIGPFFDGSIR
# B3: IIB-Fc:ALK4-Fc heterodimer (human ActRIIB ECD-Fc paired with human ALK4 ECD-Fc) (Fc fusion)
# chain 1: B1 chain 1
# chain 2: SGPRGVQALLCACTSCLQANYTCETDGACMVSIFNLDGMEHHVRTCIPKVELVPAGKPFYCLSSEDLRNTHCCYTDYCNRIDLRVPSGHLKEPEHPSMWGPVE
# Biological target: T1, growth differentiation factor 8 (GDF8, …)
# Experiment: cell-based or functional assay
row,IC50 of the trap for inhibition of ligand-induced SMAD2/3 (CAGA12) luciferase reporter signalling in A204 cells (ligand with the cells' receptors),Binder
1,9.15 nM,B1
2,10.8 nM,B2
3,2.04 nM,B3

# Biological target: T2, GDF11
# Experiment: cell-based or functional assay
row,IC50 of the trap for inhibition of ligand-induced SMAD2/3 (CAGA12) luciferase reporter signalling in A204 cells (ligand with the cells' receptors),Binder
1,2.34 nM,B1
2,2.42 nM,B2
3,0.34 nM,B3

# Biological target: T3, BMP9
# Experiment: cell-based or functional assay
row,IC50 of the trap for inhibition of ligand-induced SMAD1/5/8 (BRE) luciferase reporter signalling in T98G cells (ligand with the cells' receptors),Binder
1,31 nM,B1
2,23.4 nM,B2
3,8.47 nM,B3

# Biological target: T4, BMP10
# Experiment: cell-based or functional assay
row,IC50 of the trap for inhibition of ligand-induced SMAD1/5/8 (BRE) luciferase reporter signalling in T98G cells (ligand with the cells' receptors),Binder
1,2.01 nM,B1
2,1.1 nM,B2
3,0.7 nM,B3

# Biological target: T5, activin A
# Experiment: cell-based or functional assay
row,IC50 of the trap for inhibition of ligand-induced SMAD2/3 (CAGA12) luciferase reporter signalling in A204 cells (ligand with the cells' receptors),Binder
1,2.86 nM,B1
2,2.62 nM,B2
3,0.19 nM,B3

# Biological target: T6, activin B
# Experiment: cell-based or functional assay
row,IC50 of the trap for inhibition of ligand-induced SMAD2/3 (CAGA12) luciferase reporter signalling in A204 cells (ligand with the cells' receptors),Binder
1,0.26 nM,B1
2,1.65 nM,B2
3,0.16 nM,B3
